To fix the notation:
B1: His6-ARS019-TolA-AVI (designed binder)
chain: His6-LAEAKVLANRELDKYGVSDMYKNVINIAWWVSIVKYPIDCILALLP
modifications: not fully specified (C-terminus); also: His6-TolA-AviTag fusion, not in given chain, biotin on the AviTag (in vivo biotinylated)
notes: ABD-derived variant selected by ribosome display; source: E. coli BL21 (DE3) BirA, purified (Ni-NTA); not shown: His6, N-terminal, kept; TolA spacer protein (305 residues), C-terminal, kept
B2: His6-ARS043-TolA-AVI (designed binder)
chain: His6-LAEAKVLANRELDKYGVSDLYKNMINMALWVTGVKWLIDPILATLP
modifications: not fully specified (C-terminus); also: His6-TolA-AviTag fusion, not in given chain, biotin on the AviTag (in vivo biotinylated)
notes: as for B1
B3: His6-ARS012-TolA-AVI (designed binder)
chain: His6-LAEAKVLANRELDKYGVSDVYKLINMALYVTGVKPWIDVILAVLP-{TolA-AVI}
modifications: also: biotin on the AviTag (in vivo biotinylated)
notes: ABD-derived variant selected by ribosome display; position 23 is deleted; source: E. coli BL21 (DE3) BirA, purified (Ni-NTA); not shown: His6, N-terminal, kept; TolA spacer protein (305 residues), C-terminal, kept
B4: His6-ARS004-TolA-AVI (designed binder)
chain: His6-LAEAKVLANRELDKYGVSDVYKLINYACPVTWVKWVIDPILAMLP-{TolA-AVI}
modifications: also: biotin on the AviTag (in vivo biotinylated)
notes: as for B3
B5: His6-ARS014-TolA-AVI (designed binder)
chain: His6-LAEAKVLANRELDKYGVSDVYKNLINYAWLVMWVPIDAILALLP-{TolA-AVI}
modifications: also: biotin on the AviTag (in vivo biotinylated)
notes: ABD-derived variant selected by ribosome display; positions 35-36 are deleted; source: E. coli BL21 (DE3) BirA, purified (Ni-NTA); not shown: His6, N-terminal, kept; TolA spacer protein (305 residues), C-terminal, kept

Ends that are not written are not given here. TolA = 305-residue helical TolA spacer protein; AVI = AviTag

For the assay, the target named is T1, human IL-17RA on the cell surface (human (endogenous in THP-1 and HaCaT), UniProt Q96F46 33-866).
T1 construct: human IL-17 receptor A, endogenous on the surface of human cell lines; Expression on THP-1 was confirmed with an anti-IL-17RA antibody; also called cell-surface IL-17RA; IL-17RA-expressing THP-1 cells; source: endogenous, on THP-1 cells; endogenous, on HaCaT cells
As to the kind of experiment: LigandTracer Green Line (real-time binding to cells); adherent HaCaT cells on a dish; biotinylated His6-ARS-TolA-AVI added stepwise (3, 30, 90 nM by the results), then dissociation in fresh medium or PBS (ARS043); one-to-one model, TraceDrawer. The note with it: one partner purified.
Consider B1, for which the Kd stood at 0.7 nM. Molecule B2 gave a Kd of 32 nM. Take B3: the dissociation constant (Kd) came out at 35 nM. Under B4 stands 1.2 nM. Molecule B5 gave a Kd of 2 nM.

In general, Kd refers to the concentration at which binding is half-saturated. Higher therefore signals lower affinity.
